Experiments:
[1] = target: HLA-A*02:01 (Homo sapiens, UniProt P04439, D140Y/D185E/D98H/E176V/E277Q/G131W/G231S/I119V/I121R/I166T/I218V/L300P/L318F/N151K/N90K/P208A/P217A/Q86G/Q94H/R138H/R169H/T345S); assay: MHC binding assay (UV-ligand exchange, beta2m ELISA); conditions: binding of HLA-class I restricted peptides to HLA-A*02:01, β2m ELISA
Outline: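 Binding capacity is expressed as the yield of UV-mediated ligand exchange, reflecting how well each peptide stabilizes peptide-receptive MHC. Stabilized complexes are read out by anti-β2m HRP ELISA (450 nm) after streptavidin capture, with refolded MLA-001 monomer standards for quantitation.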

[2] = tested on: CD8+ T cells; assay: In vitro T-cell priming assay with aAPCs loaded with peptide/MHC and anti-CD28, multimer readout; type: cell-based, human; conditions: in vitro immunogenicity, percentage of positive wells; for Wells positive [%]: HLA-A*02 restricted peptides; for wells: healthy HLA-A*02 donors
From the text: In order to obtain information regarding the immunogenicity of the TUMAPs of the present invention, the inventors performed investigations using an in vitro T-cell priming assay based on repeated stimulations of CD8+ T cells with artificial antigen presenting cells (aAPCs) loaded with peptide/MHC complexes and anti-CD28 antibody.
In order to perform in vitro stimulations by artificial antigen presenting cells loaded with peptide-MHC complex (pMHC) and anti-CD28 antibody, the inventors first isolated CD8+ T cells from fresh HLA-A*02 leukapheresis products via positive selection using CD8 microbeads (Miltenyi Biotec, Bergisch-Gladbach, Germany) of healthy donors obtained from the University clinics Mannheim, Germany, after informed consent.
PBMCs and isolated CD8+ lymphocytes were incubated in T-cell medium (TCM) until use consisting of RPMI-Glutamax (Invitrogen, Karlsruhe, Germany) supplemented with 10% heat inactivated human AB serum (PAN-Biotech, Aidenbach, Germany), 100 U/ml Penicillin/100 μg/ml Streptomycin (Cambrex, Cologne, Germany), 1 mM sodium pyruvate (CC Pro, Oberdorla, Germany), 20 μg/ml Gentamycin (Cambrex). 2.5 ng/ml IL-7 (PromoCell, Heidelberg, Germany) and 10 U/ml IL-2 (Novartis Pharma, Nürnberg, Germany) were also added to the TCM at this step.
Generation of pMHC/anti-CD28 coated beads, T-cell stimulations and readout was performed in a highly defined in vitro system using four different pMHC molecules per stimulation condition and 8 different pMHC molecules per readout condition.
The purified co-stimulatory mouse IgG2a anti human CD28 Ab 9.3 (Jung et al., 1987) was chemically biotinylated using Sulfo-N-hydroxysuccinimidobiotin as recommended by the manufacturer (Perbio, Bonn, Germany). Beads used were 5.6 μm diameter streptavidin coated polystyrene particles (Bangs Laboratories, Illinois, USA).
800.000 beads/200 μl were coated in 96-well plates in the presence of 4×12.5 ng different biotin-pMHC, washed and 600 ng biotin anti-CD28 were added subsequently in a volume of 200 μl. Stimulations were initiated in 96-well plates by co-incubating […] CD8+ T cells with 2×10^5 washed coated beads in 200 μl TCM supplemented with 5 ng/ml IL-12 (PromoCell) for 3 days at 37° C. Half of the medium was then exchanged by fresh TCM supplemented with 80 U/ml IL-2 and incubating was continued for 4 days at 37° C. This stimulation cycle was performed for a total of three times. For the pMHC multimer readout using 8 different pMHC molecules per condition, a two-dimensional combinatorial coding approach was used as previously described (Andersen et al., 2012) with minor modifications encompassing coupling to 5 different fluorochromes. Finally, multimeric analyses were performed by staining the cells with Live/dead near IR dye (Invitrogen, Karlsruhe, Germany), CD8-FITC antibody clone SK1 (BD, Heidelberg, Germany) and fluorescent pMHC multimers. For analysis, a BD LSRII SORP cytometer equipped with appropriate lasers and filters was used. Peptide specific cells were calculated as percentage of total CD8+ cells. Evaluation of multimeric analysis was done using the FlowJo software (Tree Star, Oreg., USA). In vitro priming of specific multimer+CD8+ lymphocytes was detected by comparing to negative control stimulations.

Row | Peptide Exchange (MHC class I binding score, peptide exchange yield) [1] | Substance | Wells positive [%] [2] | wells [2]
1 | “++++” (≥75% = ++++) | 200 (YMFEEVPIVI; listed as Homo sapiens) [compound 200] | “+” (<20% = +) | –
2 | “+++” (≥50 = +++) | 2 (ALHRPDVYL; listed as Homo sapiens) [compound 2] | “+” (<20% = +) | –
3 | “+++” (≥50 = +++) | 96 (ILIDKTSFV; listed as Homo sapiens) [compound 96] | “+” (<20% = +) | –
4 | “+++” (≥50 = +++) | 220 (ALPEILFAKV; listed as Homo sapiens) [compound 220] | “++” (20%-49% = ++) | –
5 | “+++” (≥50 = +++) | 322 (SLASIHVPL; listed as Homo sapiens) [compound 322] | “+” (<20% = +) | –
6 | “++++” (≥75% = ++++) | 201 (YQLELHGIEL; listed as Homo sapiens) [compound 201] | “+” (<20% = +) | –
7 | “+++” (≥50 = +++) | 81 (WLVGQEFEL; listed as Homo sapiens) [compound 81] | “+” (<20% = +) | –
8 | “+++” (≥50 = +++) | 86 (HLYPGAVTI; listed as Homo sapiens) [compound 86] | “+” (<20% = +) | –
9 | “+++” (≥50 = +++) | 380 (YLDRKLLTL; listed as Homo sapiens) [compound 380] | “++++” (>=70% = ++++) | –
10 | “+++” (≥50 = +++) | 26 (AVLLVLPLV; listed as Homo sapiens) [compound 26] | “+” (<20% = +) | –
11 | “++++” (≥75% = ++++) | 320 (TIAPVTVAV; listed as Homo sapiens) [compound 320] | “+” (<20% = +) | –
12 | “+++” (≥50 = +++) | 281 (NLLDDRGMTAL; listed as Homo sapiens) [compound 281] | “+” (<20% = +) | –
13 | “++++” (≥75% = ++++) | 57 (GLSEISLRL; listed as Homo sapiens) [compound 57] | “+” (<20% = +) | –
14 | “+++” (≥50 = +++) | 69 (GLHQREIFL; listed as Homo sapiens) [compound 69] | “+” (<20% = +) | –
15 | “+++” (≥50 = +++) | 112 (KTLDVDATYEI; listed as Homo sapiens) [compound 112] | “+” (<20% = +) | –
16 | “+++” (≥50 = +++) | 56 (FVFEAPYTL; listed as Homo sapiens) [compound 56] | “++” (20%-49% = ++) | –
17 | – | 427 (LLYDAVHIV; listed as Homo sapiens) [compound 427] | – | ++ (20%-49% = ++)
18 | “++++” (≥75% = ++++) | 202 (YVDDVFLRV; listed as Homo sapiens) [compound 202] | “++” (20%-49% = ++) | –
19 | “+++” (≥50 = +++) | 114 (LIPEGPPQV; listed as Homo sapiens) [compound 114] | “+” (<20% = +) | –
20 | “++++” (≥75% = ++++) | 329 (VLMDGSVKL; listed as Homo sapiens) [compound 329] | “+++” (50%-69% = +++) | –
21 | “+++” (≥50 = +++) | 282 (LLRDGIELV; listed as Homo sapiens) [compound 282] | “++” (20%-49% = ++) | –

Row | Peptide Exchange (MHC class I binding score, peptide exchange yield) [1] | Substance | Wells positive [%] [2] | wells [2]
22 | “++++” (≥75% = ++++) | 197 (YLQEVPILTL; listed as Homo sapiens) [compound 197] | “+” (<20% = +) | –
23 | “++++” (≥75% = ++++) | 323 (SLDLFNCEV; listed as Homo sapiens) [compound 323] | “+” (<20% = +) | –
24 | “++++” (≥75% = ++++) | 49 (FLTDLFAQL; listed as Homo sapiens) [compound 49] | “++” (20%-49% = ++) | –
25 | “+++” (≥50 = +++) | 240 (ILARDILEI; listed as Homo sapiens) [compound 240] | “+” (<20% = +) | –
26 | “+++” (≥50 = +++) | 54 (FLYPFPLALF; listed as Homo sapiens) [compound 54] | “+” (<20% = +) | –
27 | – | 521 (YLYGQTTTYL; listed as Homo sapiens) [compound 521] | – | ++ (20%-49% = ++)
28 | “+++” (≥50 = +++) | 17 (ALTKTNLQL; listed as Homo sapiens) [compound 17] | “+” (<20% = +) | –
29 | “++++” (≥75% = ++++) | 32 (FIDKFTPPV; listed as Homo sapiens) [compound 32] | “++++” (>=70% = ++++) | –
30 | “++++” (≥75% = ++++) | 154 (SLLAELHVLTV; listed as Homo sapiens) [compound 154] | “+” (<20% = +) | –
31 | “+++” (≥50 = +++) | 1 (AIPPSFASIFL; listed as Homo sapiens) [compound 1] | “+++” (50%-69% = +++) | –
32 | “+++” (≥50 = +++) | 307 (LLLTKPTEA; listed as Homo sapiens) [compound 307] | “+” (<20% = +) | –
33 | “++” (≥20% = ++) | 102 (IQDRAVPSL; listed as Homo sapiens) [compound 102] | “+” (<20% = +) | –
34 | “++” (≥20% = ++) | 162 (SMKDDLENV; listed as Homo sapiens) [compound 162] | – | –
35 | “++” (≥20% = ++) | 87 (HQIEAVDGEEL; listed as Homo sapiens) [compound 87] | – | –
36 | “+++” (≥50 = +++) | 211 (LIDVKPLGV; listed as Homo sapiens) [compound 211] | – | –
37 | “+++” (≥50 = +++) | 50 (FLFEPVVKAFL; listed as Homo sapiens) [compound 50] | – | –
38 | “+++” (≥50 = +++) | 262 (SLWNAGTSV; listed as Homo sapiens) [compound 262] | – | –
39 | “+++” (≥50 = +++) | 367 (NLWSLVAKV; listed as Homo sapiens) [compound 367] | – | –
40 | “++++” (≥75% = ++++) | 327 (VLIKWFPEV; listed as Homo sapiens) [compound 327] | – | –
41 | “++” (≥20% = ++) | 277 (VMILKLPFL; listed as Homo sapiens) [compound 277] | – | –
42 | “+++” (≥50 = +++) | 145 (SALDTITTV; listed as Homo sapiens) [compound 145] | – | –

— patent US10064928B2, “Peptides and combination of peptides for use in immunotherapy against CLL and other cancers” (IMMATICS BIOTECHNOLOGIES GMBH, priority 2015, dated 2018)
